Experimental data reported in PMC9482650, “Quantitative fragmentomics allow affinity mapping of interactomes” (Nature Communications, 2022).

Experiments:
[1] = target: MAST1, Q9Y2H9; test: holdup assay; design: key: below the threshold = too weak to quantify, mostly under pKd 3.1 to 4
[2] = target: GRIP2_4, Q9C0E4; test: holdup assay; design: key: below the threshold = too weak to quantify, mostly under pKd 3.1 to 4
[3] = plain residues with an end cap or a label only (N-terminal biotin on a linker: ttds)
[4] = plain residues with an end cap or a label only (N-terminal biotin on a linker: ahx)
[5] = plain residues with an end cap or a label only (N-terminal biotin on a linker: ado-ado)
[6] = plain residues with an end cap or a label only (N-terminal biotin on a linker: gsgsgs; C-terminal amide)

Chain of MAST1, Q9Y2H9 (Q9Y2H9 962-1065): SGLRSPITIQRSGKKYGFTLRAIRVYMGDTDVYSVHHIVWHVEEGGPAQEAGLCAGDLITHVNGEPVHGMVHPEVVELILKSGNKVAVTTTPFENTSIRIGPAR
Chain of GRIP2_4, Q9C0E4 (Q9C0E4 446-548): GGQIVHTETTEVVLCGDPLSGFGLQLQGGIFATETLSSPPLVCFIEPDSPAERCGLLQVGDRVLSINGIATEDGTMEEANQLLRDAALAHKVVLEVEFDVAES

Binder	pKd [1, 3]	pKd [2, 3]	pKd [2, 4]	also measured
GGPKEEESPV [SLC16A1, P53985]	below the threshold	below the threshold		
KTSAHHATFV [RGS12, O14924]			below the threshold	pKd [1, 4]: 3.65
SRRPRTETQV [HPV31-E6, P17386]	4.42	below the threshold		
CNTVTVETVV [MAS1, P04201]	3.58	3.55		
PKRPFVESNV [TANC2, Q9HCD6]	below the threshold	below the threshold		
LHLHGTGIQV [EPHA7, Q15375]				pKd [1, 5]: below the threshold; pKd [2, 5]: below the threshold
RGGFGRQTQI [NCBP2L, A6PVI3]				pKd [1, 5]: 4.6; pKd [2, 5]: below the threshold
EEPEERHTEL [CES2, O00748]				pKd [1, 5]: 3.53; pKd [2, 5]: below the threshold
RNCSTNDSLL [ADRB2, P07550]			below the threshold	pKd [1, 4]: 3.74
EDLTKNHDEL [RCN1, Q15293]				pKd [1, 5]: 3.91; pKd [2, 5]: below the threshold
KKNKDKEYYV [NRXN1, Q9ULB1]			below the threshold	pKd [1, 4]: below the threshold
VNKVWDQSSV [CIT, O14578]	4.51	below the threshold		
TETASVCTKV [SLC23A1, Q9UHI7]				pKd [1, 5]: 4.85; pKd [2, 5]: below the threshold
HSGSYLVTSV [APC, P25054]			below the threshold	pKd [1, 4]: 4.22
TIVSWPGTFL [LNX1, Q8TBB1]			below the threshold	pKd [1, 4]: 4.25
SSSNSEDTEM [NHERF3, Q5T2W1]			below the threshold	pKd [1, 4]: 3.94
QKNKDKEYYV [NRXN3_rs746444206, Q9Y4C0]				pKd [1, 5]: below the threshold; pKd [2, 5]: below the threshold

Binder	pKd [1, 3]	pKd [2, 3]	pKd [2, 4]	also measured
GKKSVKHSKI [ACOT6, Q3I5F7]				pKd [1, 5]: below the threshold; pKd [2, 5]: below the threshold
QFQYAKESYI [TAGAP, Q8N103]	3.54	below the threshold		
DPRNTQTSQI [ABRAXAS2, Q15018]	4.32	below the threshold		
FVHPILQSAV [PRKCA, P17252]				pKd [1, 5]: 4.23; pKd [2, 5]: below the threshold
GFGEERESIL [KIDINS220, Q9ULH0]				pKd [1, 5]: 4.66; pKd [2, 5]: below the threshold
LCALPKVTTV [AGMAT, Q9BSE5]	3.88	below the threshold		
EDEDEQVSAV [RAPGEF2, Q9Y4G8]			below the threshold	pKd [1, 4]: 4.22
SVVSERISSV [HTR2C, P28335]				pKd [1, 5]: 4.02; pKd [2, 5]: below the threshold
LDSQIQETSI [MAP4, P27816]	4.56	below the threshold		
ELIQDTSTSFSTTREW [ARAP3_int, Q8WWN8]				pKd [1, 6]: 3.49; pKd [2, 6]: below the threshold
LCKSHAFSHV [PDLIM7, Q9NR12;Q9NR12-1]			below the threshold	
TEEEVQDTRL [CFTR, P13569]	4.77	below the threshold		
NQLAWFDTDL [CTNNB1, P35222]	4.83	below the threshold		
EKLSSIESDV [GRIN2B, Q13224]			below the threshold	pKd [1, 4]: 4.04
QGRWDHETIV [TMEM215, Q68D42]			below the threshold	pKd [1, 4]: 4.3
GIFPTLTSPL [SHROOM3, Q8TF72]			below the threshold	pKd [1, 4]: 3.5
SPLHSLETSL [ATP2B1, P20020]	4.92	below the threshold		
